Measurements reported in US20200109196A1 (MOGAM INSTITUTE FOR BIOMEDICAL RESEARCH, published 2020).

Columns and labels:
Test in all cases: flow cytometry on transfected HEK293 cells (GFP+ gate), PE goat anti-huIgG4 [a]
[1] = molecular target: T1, CEACAM6 expressed on the surface of HEK293 cells (human, UniProt P40199 35-320)
T1 construct: whole, on cells; GFP-tagged clone; also called CEACAM6-GFP
T1 sequence (looked up): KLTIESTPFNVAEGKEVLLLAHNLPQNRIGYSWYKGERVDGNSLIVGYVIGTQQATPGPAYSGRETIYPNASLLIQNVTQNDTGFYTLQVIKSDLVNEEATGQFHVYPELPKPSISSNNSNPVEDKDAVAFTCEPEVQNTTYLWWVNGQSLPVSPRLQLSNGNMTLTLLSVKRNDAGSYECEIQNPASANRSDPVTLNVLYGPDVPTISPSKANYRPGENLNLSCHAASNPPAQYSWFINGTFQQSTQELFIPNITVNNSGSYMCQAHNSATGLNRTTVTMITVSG
Procedure: (§1) HEK293 cells were added with 10 μg of each pEF1α-AcGFP-N1 vector (Clontech, Cat. No. 631973) as a control vector, CEACAM1, CEACAM3, CEACAM5, CEACAM6 and CEACAM8 plasmid vectors, followed by transfection under the condition of pulse voltage 1,100 V, pulse width 20 ms and pulse number 2. After 48 hours of transfection, GFP expression was confirmed by fluorescence microscopy. The cells were detached by treatment with 1 ml of TrypLE Express Solution (ThermoFisher Scientific; Cat. No. 12605010), resuspended in 9 ml of DMEM (Gibco, Cat. No. 11995-065) supplemented with 10% (v/v) FBS, and centrifuged at 1,200 rpm for 5 minutes, to remove the resulting supernatant.
(§2) After washing once with PBS, the cells were resuspended in a FACS buffer to obtain a concentration of 5×10⁵ cells/100 μl. Human Fc Block solution was added to the samples at 1 μl/sample, which were incubated at 4° C. for 10 minutes. The cells were treated with hulgG4 or one of the anti-CEACAM1 clones listed at 1 μg/5×10⁵ cells, which were incubated at 4° C. for 10 minutes. After washing with FACS buffer, the PE-labeled goat-anti-huIgG4 antibodies were diluted at a ratio of 1:200 in a FACS buffer, and added to the samples at 100 μl/sample, which were incubated at 4° C. for 30 minutes. The samples were filled with a FACS buffer up to 200 μl, and then centrifuged at 1,200 rpm for 5 minutes, to remove the resulting supernatant. The fixation buffer (300 μl) was added to resuspend the cells. The cells expressing GFP were selected in the FACS LSR-Fortessa device, and the expression of CEACAM members were evaluated respectively using the antibody specific to each CEACAM member (Table 3). Also, the binding of anti-CEACAM1 antibodies was evaluated by PE fluorescence channel and analyzed using the FlowJo software.

[2] = molecular target: T2, CEACAM5 expressed on the surface of HEK293 cells (human, UniProt P06731 35-685)
T2 construct: whole, on cells; GFP-tagged clone; also called CEACAM5-GFP
T2 sequence (looked up): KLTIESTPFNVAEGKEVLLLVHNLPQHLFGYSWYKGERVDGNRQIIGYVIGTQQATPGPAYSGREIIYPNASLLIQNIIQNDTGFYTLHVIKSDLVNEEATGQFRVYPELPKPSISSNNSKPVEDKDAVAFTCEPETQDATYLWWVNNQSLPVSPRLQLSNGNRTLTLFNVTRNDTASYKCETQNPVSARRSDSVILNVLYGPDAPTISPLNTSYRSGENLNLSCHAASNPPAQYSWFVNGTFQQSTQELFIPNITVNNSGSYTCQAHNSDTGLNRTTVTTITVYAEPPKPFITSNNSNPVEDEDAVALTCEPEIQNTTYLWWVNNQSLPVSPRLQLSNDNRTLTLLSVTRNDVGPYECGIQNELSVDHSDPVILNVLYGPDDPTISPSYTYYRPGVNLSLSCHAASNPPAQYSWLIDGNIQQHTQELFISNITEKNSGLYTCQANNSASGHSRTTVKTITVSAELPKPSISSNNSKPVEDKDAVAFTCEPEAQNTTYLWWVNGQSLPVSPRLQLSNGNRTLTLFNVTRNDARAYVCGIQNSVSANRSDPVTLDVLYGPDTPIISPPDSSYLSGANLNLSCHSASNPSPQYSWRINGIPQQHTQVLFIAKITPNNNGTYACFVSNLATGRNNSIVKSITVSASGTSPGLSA
Procedure: as §1, §2

[3] = molecular target: T3, CEACAM3 expressed on the surface of HEK293 cells (human, UniProt P40198 35-252)
T3 construct: whole, on cells; GFP-tagged clone; also called CEACAM3-GFP
T3 sequence (looked up): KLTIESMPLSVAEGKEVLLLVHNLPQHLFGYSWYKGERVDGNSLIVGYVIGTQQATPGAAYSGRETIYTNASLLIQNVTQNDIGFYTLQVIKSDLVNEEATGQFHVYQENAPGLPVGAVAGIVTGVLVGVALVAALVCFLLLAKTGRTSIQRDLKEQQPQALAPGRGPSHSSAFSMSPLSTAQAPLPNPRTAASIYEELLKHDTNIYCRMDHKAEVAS
Procedure: as §1, §2

[4] = molecular target: T4, CEACAM8 expressed on the surface of HEK293 cells (human, UniProt P31997 35-320)
T4 construct: whole, on cells
T4 sequence (looked up): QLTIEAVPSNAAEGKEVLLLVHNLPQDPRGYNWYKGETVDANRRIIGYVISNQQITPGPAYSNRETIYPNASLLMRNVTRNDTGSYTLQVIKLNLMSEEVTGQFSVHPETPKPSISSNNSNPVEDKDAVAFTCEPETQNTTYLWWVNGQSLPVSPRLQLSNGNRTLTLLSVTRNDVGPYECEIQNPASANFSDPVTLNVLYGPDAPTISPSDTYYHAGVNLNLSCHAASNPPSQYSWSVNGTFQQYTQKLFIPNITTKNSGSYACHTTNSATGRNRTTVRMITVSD
Procedure: as §1, §2

- binding result [1]: no binding
- binding result [2]: no binding
- binding result [3]: no binding
- binding result [4]: no binding
B1: C25 (antibody, human IgG4 S228P, lambda, V domains shown)
VH: EVQLLESGGGLVQPGGSLRLSCAASGFTFSNYAMSWVRQAPGKGLEWVSVISHGGGSIYYADSVKGRLTISRDNSKNTLYLQMNSLRAEDTAVYYCARDPTKGYAPTFDYWGQGTLVTVSS
VL: QSVLTQPPSASGTPGQRVTISCSGSSSNIGNNYVSWYQQLPGTAPKLLIYADSKRPSGVPDRFSGSKSGTSASLAISGLRSEDEADYYCGAWDASLNGYVFGGGTKLTVLG
notes: Made in ExpiHEK293F cells, protein A purified. huIgG4 is the isotype control and anti-huIgG4 the detection reagent; the isotype is not otherwise stated; also called anti-CEACAM1 antibody C25
